The data set has as its system FLAG-tagged UNC-45 (UNC-45^FLAG).

As for ^mycCHN-1^ΔU-box, the “in vitro ubiquitylation of UNC-45, Western blot” value is “a CHN-1 version lacking the U-box, CHN-1^ΔU-box, was not able to ubiquitylate UNC-45”.

These data come from patent US20090053196.
